Measured values from the supplement of paper PMC10065799, “High-throughput profiling of sequence recognition by tyrosine kinases and SH2 domains using bacterial peptide display” (eLife, 2023).

System: c-Src
Assay: phosphorylation enrichment, bacterial display (enrichment ratio); higher = better substrate or ligand; peptides without Tyr show the background
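Further: 11-residue human phosphosite peptides and single-mutation variants displayed on the E. coli surface, counted by deep sequencing, each peptide's frequency after selection divided by its frequency in the unselected input library; frequency after pTyr selection over input frequency; kinase dosed for 20-30% of maximal phosphorylation in three min.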

Row | Sequence | phosphorylation enrichment
1 | ADGLEYPRTGL [MMUT_Y287_S288P] | 0.288
2 | SGTYQYIIAKF [FOXL2_Y83_I80T] | 0.943
3 | SVVVPYQPPEV [TP53_Y220_E221Q] | 0.44
4 | TVDASYYGGRG [ANTXR2_Y380] | 0.642
5 | DEEEEYEYMNR [ERBB3_Y1197_D1194E] | 0.408
6 | TGILLHGLASR [QARS1_Y57_Y57H] | 0.469
7 | RFMELYDLNRD [BBS2_Y648_YF] | 2.04
8 | EACPSYSHVVL [CHST6_Y168_R166P] | 0.507
9 | GRRGQYVMLSE [TTC7A_Y396] | 0.549
10 | WAFNLYDINKF [KCNIP3_Y174_D179Y_YF] | 1.61
11 | KGPGEYVNIEF [IRS1_Y896_S892G] | 0.484
12 | QEIATYRRQLE [KRT14_Y415_L418Q] | 0.583
13 | HEPKGYNANFC [TGFB2_Y341] | 0.595
14 | YYLGKYLQEVL [KLB_Y910] | 0.523
15 | DFTSRYLNASD [PKHD1_Y828] | 0.43
16 | SHEELYKWFTS [DYNC1H1_Y3051] | 1.55
17 | LRTAVHHEILI [CREBBP_Y1450_Y1450H] | 0.701

Row | Sequence | phosphorylation enrichment
18 | RAMPVYKKAEH [TP63_Y231] | 0.288
19 | CNLDTYQKRLR [PLA2G2D_Y126_R121C] | 0.473
20 | HNVPIYEGFAL [ACTA1_Y168_YF] | 10.6
21 | LKALHYMAQTS [SACS_Y3367_V3369A] | 0.587
22 | LLREWYLQDPY [SIX3_Y225] | 1.11
23 | YRTPGYREVVI [TNS2_Y673_A670T] | 0.465
24 | CTTIFYNFMCN [TP53_Y234_H233Y_YF] | 1.69
25 | VGTTAYMAPEA [IRAK4_Y354] | 0.414
26 | HEKKAYSFCGT [RPS6KA3_Y226] | 0.65
27 | TLRKTYGEMAD [ALB_Y108_E106K] | 0.419
28 | GISDEYHMIRH [GCDH_Y398_V400M] | 0.735
29 | QMQNPYSSHSS [MUC13_Y501_R503S] | 0.818
30 | QYQEKYKQMEQ [HCN4_Y531_V534M] | 0.374
31 | VDGFVYKLHPS [GCK_Y413_S411F] | 0.643
32 | KLQKKYGPIFS [CYP17A1_Y60_YF] | 0.489
33 | RLNCIYFKDQT [RS1_Y165_W163C_YF] | 1.08

Target: EPHB1 (UniProt P54762)
Assay: as above

Chain of EPHB1 (P54762 whole entry, looked up): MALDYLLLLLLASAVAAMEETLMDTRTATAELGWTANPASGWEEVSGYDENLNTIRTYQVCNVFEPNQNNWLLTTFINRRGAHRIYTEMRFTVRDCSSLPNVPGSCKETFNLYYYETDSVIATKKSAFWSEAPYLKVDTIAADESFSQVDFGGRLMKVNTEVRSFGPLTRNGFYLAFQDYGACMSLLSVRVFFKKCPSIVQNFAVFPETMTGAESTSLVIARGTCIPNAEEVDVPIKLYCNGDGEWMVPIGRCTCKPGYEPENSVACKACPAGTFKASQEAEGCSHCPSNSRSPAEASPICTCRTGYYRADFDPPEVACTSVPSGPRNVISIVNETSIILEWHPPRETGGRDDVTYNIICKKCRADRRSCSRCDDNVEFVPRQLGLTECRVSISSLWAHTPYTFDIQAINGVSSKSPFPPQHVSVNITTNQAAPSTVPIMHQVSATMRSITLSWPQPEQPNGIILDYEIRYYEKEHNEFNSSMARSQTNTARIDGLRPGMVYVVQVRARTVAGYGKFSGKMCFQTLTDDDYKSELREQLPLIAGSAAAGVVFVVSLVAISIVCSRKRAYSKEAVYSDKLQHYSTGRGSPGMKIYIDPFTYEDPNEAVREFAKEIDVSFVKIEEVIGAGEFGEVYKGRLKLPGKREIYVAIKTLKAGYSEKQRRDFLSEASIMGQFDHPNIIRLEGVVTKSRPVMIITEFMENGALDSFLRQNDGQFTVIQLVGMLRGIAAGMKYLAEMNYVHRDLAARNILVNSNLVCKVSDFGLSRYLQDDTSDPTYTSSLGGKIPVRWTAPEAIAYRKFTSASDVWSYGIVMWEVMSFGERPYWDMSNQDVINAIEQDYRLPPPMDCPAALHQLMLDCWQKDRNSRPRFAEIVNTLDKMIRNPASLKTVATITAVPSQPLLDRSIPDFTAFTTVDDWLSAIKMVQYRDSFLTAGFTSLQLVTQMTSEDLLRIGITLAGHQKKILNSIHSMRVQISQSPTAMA

Row | Sequence | phosphorylation enrichment
34 | ADGLEYPRTGL [MMUT_Y287_S288P] | 0.425
35 | SGTYQYIIAKF [FOXL2_Y83_I80T] | 4.98
36 | SVVVPYQPPEV [TP53_Y220_E221Q] | 0.645
37 | TVDASYYGGRG [ANTXR2_Y380] | 0.411
38 | DEEEEYEYMNR [ERBB3_Y1197_D1194E] | 0.493
39 | TGILLHGLASR [QARS1_Y57_Y57H] | 0.28
40 | RFMELYDLNRD [BBS2_Y648_YF] | 0.61
41 | EACPSYSHVVL [CHST6_Y168_R166P] | 0.492
42 | GRRGQYVMLSE [TTC7A_Y396] | 0.431
43 | WAFNLYDINKF [KCNIP3_Y174_D179Y_YF] | 2.22
44 | KGPGEYVNIEF [IRS1_Y896_S892G] | 0.708
45 | QEIATYRRQLE [KRT14_Y415_L418Q] | 0.75
46 | HEPKGYNANFC [TGFB2_Y341] | 0.656
47 | YYLGKYLQEVL [KLB_Y910] | 0.506
48 | DFTSRYLNASD [PKHD1_Y828] | 0.46
49 | SHEELYKWFTS [DYNC1H1_Y3051] | 0.608
50 | LRTAVHHEILI [CREBBP_Y1450_Y1450H] | 1.02

Row | Sequence | phosphorylation enrichment
51 | RAMPVYKKAEH [TP63_Y231] | 0.197
52 | CNLDTYQKRLR [PLA2G2D_Y126_R121C] | 0.463
53 | HNVPIYEGFAL [ACTA1_Y168_YF] | 22.5
54 | LKALHYMAQTS [SACS_Y3367_V3369A] | 0.759
55 | LLREWYLQDPY [SIX3_Y225] | 0.947
56 | YRTPGYREVVI [TNS2_Y673_A670T] | 0.358
57 | CTTIFYNFMCN [TP53_Y234_H233Y_YF] | 0.686
58 | VGTTAYMAPEA [IRAK4_Y354] | 0.385
59 | HEKKAYSFCGT [RPS6KA3_Y226] | 0.703
60 | TLRKTYGEMAD [ALB_Y108_E106K] | 0.307
61 | GISDEYHMIRH [GCDH_Y398_V400M] | 0.446
62 | QMQNPYSSHSS [MUC13_Y501_R503S] | 0.546
63 | QYQEKYKQMEQ [HCN4_Y531_V534M] | 0.61
64 | VDGFVYKLHPS [GCK_Y413_S411F] | 0.434
65 | KLQKKYGPIFS [CYP17A1_Y60_YF] | 0.377
66 | RLNCIYFKDQT [RS1_Y165_W163C_YF] | 0.827
